{"source": "patent US20230088483A1", "about": "“USE OF R[…] GENE DERIVED PROTEIN OR FRAGMENT THEREOF” (priority 2020, published 2023)", "molecules": {"B1": {"name": "Novaferon: Recombinant cytokine gene derived protein, an analog of interferon (SEQ ID NO: 1); applicant's product, Genova Biotech (Qingdao) Co., Ltd. (protein)", "chain": "CNLSQTHSLGSKRTLMLLAQMGKISLFSCLKDRHDFEFPQEEFDGNQFQKAQAISVLHELIQQTFNLFSTKESSAAWDEGLLDKFRTELYRQLNDLEACMMQEVGVEETPLMNADSILAVKKYFQRITLYLMEKKYSPCAWEVVRVEIMRSLSFSTNLQKRLRGKD", "modifications": "Amino Acid Sequences Synthesized by Chemical Means"}}, "test_system": "SARS-CoV-2 (C-Tan-nCoV Wuhan strain 01)", "assay_type": "cell-based", "conditions": "Vero cells; for Ct value: 100 PFU/well, medicine added 2 h after infection, supernatant at 24 h, qRT-PCR target ORF1a/b, control group Ct 22.6", "note": "Read-outs that look alike come from different tables or passages of the source.", "data": [{"molecule": "B1", "values": [{"measurement": "Ct value", "setting": "Novaferon 0.001 ng/mL", "result": 22.645}, {"measurement": "Ct value", "setting": "Novaferon 0.01 ng/mL", "result": 22.685}, {"measurement": "Ct value", "setting": "Novaferon 0.1 ng/mL", "result": 22.815}, {"measurement": "Ct value", "setting": "Novaferon 1 ng/mL", "result": 23.665}, {"measurement": "Ct value", "setting": "Novaferon 10 ng/mL", "result": 29.025}, {"measurement": "Ct value", "setting": "Novaferon 100 ng/mL", "result": 27.625}, {"measurement": "cytopathic effect (CPE)", "setting": "medicine concentration 10 ng/mL", "result": "no obvious cytopathic effect"}, {"measurement": "cytopathic effect (CPE)", "setting": "medicine concentration 100 ng/mL", "result": "no obvious cytopathic effect"}, {"measurement": "half maximal inhibitory concentration IC50 for the SARS-CoV-2 in vitro", "setting": "preliminary calculation from inhibition rates based on Ct values", "result": 1.02, "unit": "ng/mL"}]}]}
